This note sets out measurements from patent publication US20140147444A1 (published 2014).

In the assay the target is T1, human OPGbp [143-317] (human, UniProt O14788 143-317).
T1 construct: also called OPGL
T1 sequence (looked up): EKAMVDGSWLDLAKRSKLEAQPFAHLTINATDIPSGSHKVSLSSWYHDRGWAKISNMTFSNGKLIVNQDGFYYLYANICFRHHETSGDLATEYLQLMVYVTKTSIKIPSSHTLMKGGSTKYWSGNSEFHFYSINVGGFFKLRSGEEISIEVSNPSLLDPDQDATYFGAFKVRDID
The assay can be described thus: SPR (BIAcore), immobilized OPGbp [143-317].

B1: “AT” antibody variant S96D (heavy chain CDR3) (antibody, name in Kabat numbering, V domains shown)
VH: QVQLVQSGAEVRKPGASVKVSCKASGYDFSNYAIHWVRQAPGQRLEWMGWINAGNGNTKFSQKFQGRITVTRDTAASTAYMELRSLRSEDTAVYYCARDDSNMVRGIIIAYYFDYWGQGTLVTVSS
VL: EIVMTQSPSSLSASVGDRVTITCRASQSISRYLNWYQLKPGKAPRLLIYGASSLQSGVPSRFSGSGSGAEFTLTISSLQPEDIATYYCQHTRAFGQGTKVEIKR
notes: not shown: human IgG1 CH1, hinge, CH2 and CH3
As for B1, binding was put at a Kd of 0.51 nM, the koff amounted to 0.00118 s⁻¹ and the kon worked out at 2.28e+06 M⁻¹ s⁻¹.

B2: “AT” antibody variant S96T (heavy chain CDR3) (antibody, name in Kabat numbering, V domains shown)
VH: QVQLVQSGAEVRKPGASVKVSCKASGYDFSNYAIHWVRQAPGQRLEWMGWINAGNGNTKFSQKFQGRITVTRDTAASTAYMELRSLRSEDTAVYYCARDTSNMVRGIIIAYYFDYWGQGTLVTVSS
VL: EIVMTQSPSSLSASVGDRVTITCRASQSISRYLNWYQLKPGKAPRLLIYGASSLQSGVPSRFSGSGSGAEFTLTISSLQPEDIATYYCQHTRAFGQGTKVEIKR
notes: as for B1
The molecule B2 registered a Kd of 0.53 nM, a koff of 0.00167 s⁻¹ and a kon of 3.14e+06 M⁻¹ s⁻¹.

B3: “AT” antibody variant S96M (heavy chain CDR3) (antibody, name in Kabat numbering, V domains shown)
VH: QVQLVQSGAEVRKPGASVKVSCKASGYDFSNYAIHWVRQAPGQRLEWMGWINAGNGNTKFSQKFQGRITVTRDTAASTAYMELRSLRSEDTAVYYCARDMSNMVRGIIIAYYFDYWGQGTLVTVSS
VL: EIVMTQSPSSLSASVGDRVTITCRASQSISRYLNWYQLKPGKAPRLLIYGASSLQSGVPSRFSGSGSGAEFTLTISSLQPEDIATYYCQHTRAFGQGTKVEIKR
notes: as for B1
Molecule B3 yielded a Kd of 2.43 nM, a koff of 0.0087 s⁻¹ and a kon of 3.57e+06 M⁻¹ s⁻¹.

B4: “AT” antibody variant S96G (heavy chain CDR3) (antibody, name in Kabat numbering, V domains shown)
VH: QVQLVQSGAEVRKPGASVKVSCKASGYDFSNYAIHWVRQAPGQRLEWMGWINAGNGNTKFSQKFQGRITVTRDTAASTAYMELRSLRSEDTAVYYCARDGSNMVRGIIIAYYFDYWGQGTLVTVSS
VL: EIVMTQSPSSLSASVGDRVTITCRASQSISRYLNWYQLKPGKAPRLLIYGASSLQSGVPSRFSGSGSGAEFTLTISSLQPEDIATYYCQHTRAFGQGTKVEIKR
notes: as for B1
Regarding B4, the Kd was 3.85 nM, the koff was found to be 0.015 s⁻¹ and the kon was 3.87e+06 M⁻¹ s⁻¹.

B5: “AT” antibody variant S96Y (heavy chain CDR3) (antibody, name in Kabat numbering, V domains shown)
VH: QVQLVQSGAEVRKPGASVKVSCKASGYDFSNYAIHWVRQAPGQRLEWMGWINAGNGNTKFSQKFQGRITVTRDTAASTAYMELRSLRSEDTAVYYCARDYSNMVRGIIIAYYFDYWGQGTLVTVSS
VL: EIVMTQSPSSLSASVGDRVTITCRASQSISRYLNWYQLKPGKAPRLLIYGASSLQSGVPSRFSGSGSGAEFTLTISSLQPEDIATYYCQHTRAFGQGTKVEIKR
notes: as for B1
In turn, B5 showed a Kd of 0.67 nM, a koff of 0.00185 s⁻¹ and a kon of 2.75e+06 M⁻¹ s⁻¹.

B6: “AT” antibody variant S96P (heavy chain CDR3) (antibody, name in Kabat numbering, V domains shown)
VH: QVQLVQSGAEVRKPGASVKVSCKASGYDFSNYAIHWVRQAPGQRLEWMGWINAGNGNTKFSQKFQGRITVTRDTAASTAYMELRSLRSEDTAVYYCARDPSNMVRGIIIAYYFDYWGQGTLVTVSS
VL: EIVMTQSPSSLSASVGDRVTITCRASQSISRYLNWYQLKPGKAPRLLIYGASSLQSGVPSRFSGSGSGAEFTLTISSLQPEDIATYYCQHTRAFGQGTKVEIKR
notes: as for B1
On to B6, for which the Kd is 1.29 nM, the koff came to 0.00188 s⁻¹ and the on-rate constant (kon) is 1.45e+06 M⁻¹ s⁻¹.

B7: “AT” antibody variant S96H (heavy chain CDR3) (antibody, name in Kabat numbering, V domains shown)
VH: QVQLVQSGAEVRKPGASVKVSCKASGYDFSNYAIHWVRQAPGQRLEWMGWINAGNGNTKFSQKFQGRITVTRDTAASTAYMELRSLRSEDTAVYYCARDHSNMVRGIIIAYYFDYWGQGTLVTVSS
VL: EIVMTQSPSSLSASVGDRVTITCRASQSISRYLNWYQLKPGKAPRLLIYGASSLQSGVPSRFSGSGSGAEFTLTISSLQPEDIATYYCQHTRAFGQGTKVEIKR
notes: as for B1
B7 registered a Kd of 1.86 nM, a koff of 0.00764 s⁻¹ and a kon of 4.12e+06 M⁻¹ s⁻¹.

B8: “AT” antibody variant S96Q (heavy chain CDR3) (antibody, name in Kabat numbering, V domains shown)
VH: QVQLVQSGAEVRKPGASVKVSCKASGYDFSNYAIHWVRQAPGQRLEWMGWINAGNGNTKFSQKFQGRITVTRDTAASTAYMELRSLRSEDTAVYYCARDQSNMVRGIIIAYYFDYWGQGTLVTVSS
VL: EIVMTQSPSSLSASVGDRVTITCRASQSISRYLNWYQLKPGKAPRLLIYGASSLQSGVPSRFSGSGSGAEFTLTISSLQPEDIATYYCQHTRAFGQGTKVEIKR
notes: as for B1
Take B8: binding was characterised by a dissociation constant (Kd) of 3.09 nM, the koff was 0.00359 s⁻¹ and the kon turned out to be 1.16e+06 M⁻¹ s⁻¹.

B9: “AT” antibody variant S96E (heavy chain CDR3) (antibody, name in Kabat numbering, V domains shown)
VH: QVQLVQSGAEVRKPGASVKVSCKASGYDFSNYAIHWVRQAPGQRLEWMGWINAGNGNTKFSQKFQGRITVTRDTAASTAYMELRSLRSEDTAVYYCARDESNMVRGIIIAYYFDYWGQGTLVTVSS
VL: EIVMTQSPSSLSASVGDRVTITCRASQSISRYLNWYQLKPGKAPRLLIYGASSLQSGVPSRFSGSGSGAEFTLTISSLQPEDIATYYCQHTRAFGQGTKVEIKR
notes: as for B1
B9 returned a Kd of 0.35 nM, a koff of 0.000901 s⁻¹ and a kon of 2.54e+06 M⁻¹ s⁻¹.

B10: “AT” antibody variant S96I (heavy chain CDR3) (antibody, name in Kabat numbering, V domains shown)
VH: QVQLVQSGAEVRKPGASVKVSCKASGYDFSNYAIHWVRQAPGQRLEWMGWINAGNGNTKFSQKFQGRITVTRDTAASTAYMELRSLRSEDTAVYYCARDISNMVRGIIIAYYFDYWGQGTLVTVSS
VL: EIVMTQSPSSLSASVGDRVTITCRASQSISRYLNWYQLKPGKAPRLLIYGASSLQSGVPSRFSGSGSGAEFTLTISSLQPEDIATYYCQHTRAFGQGTKVEIKR
notes: as for B1
Take B10: the Kd was 1.56 nM, the koff came out at 0.00466 s⁻¹ and the kon was 2.99e+06 M⁻¹ s⁻¹.

B11: “AT” antibody variant S96R (heavy chain CDR3) (antibody, name in Kabat numbering, V domains shown)
VH: QVQLVQSGAEVRKPGASVKVSCKASGYDFSNYAIHWVRQAPGQRLEWMGWINAGNGNTKFSQKFQGRITVTRDTAASTAYMELRSLRSEDTAVYYCARDRSNMVRGIIIAYYFDYWGQGTLVTVSS
VL: EIVMTQSPSSLSASVGDRVTITCRASQSISRYLNWYQLKPGKAPRLLIYGASSLQSGVPSRFSGSGSGAEFTLTISSLQPEDIATYYCQHTRAFGQGTKVEIKR
notes: as for B1
The molecule B11 displayed a Kd of 0.38 nM, a koff of 0.00262 s⁻¹ and a kon of 6.97e+06 M⁻¹ s⁻¹.

B12: “AT” antibody variant S96N (heavy chain CDR3) (antibody, name in Kabat numbering, V domains shown)
VH: QVQLVQSGAEVRKPGASVKVSCKASGYDFSNYAIHWVRQAPGQRLEWMGWINAGNGNTKFSQKFQGRITVTRDTAASTAYMELRSLRSEDTAVYYCARDNSNMVRGIIIAYYFDYWGQGTLVTVSS
VL: EIVMTQSPSSLSASVGDRVTITCRASQSISRYLNWYQLKPGKAPRLLIYGASSLQSGVPSRFSGSGSGAEFTLTISSLQPEDIATYYCQHTRAFGQGTKVEIKR
notes: as for B1
In turn, B12 showed a Kd of 1.53 nM, a koff of 0.00215 s⁻¹ and a kon of 1.4e+06 M⁻¹ s⁻¹.

B13: “AT” antibody variant S96L (heavy chain CDR3) (antibody, name in Kabat numbering, V domains shown)
VH: QVQLVQSGAEVRKPGASVKVSCKASGYDFSNYAIHWVRQAPGQRLEWMGWINAGNGNTKFSQKFQGRITVTRDTAASTAYMELRSLRSEDTAVYYCARDLSNMVRGIIIAYYFDYWGQGTLVTVSS
VL: EIVMTQSPSSLSASVGDRVTITCRASQSISRYLNWYQLKPGKAPRLLIYGASSLQSGVPSRFSGSGSGAEFTLTISSLQPEDIATYYCQHTRAFGQGTKVEIKR
notes: as for B1
In turn, B13 gave a Kd of 0.3 nM, a koff of 0.00175 s⁻¹ and a kon of 5.84e+06 M⁻¹ s⁻¹.

B14: “AT” antibody variant S96V (heavy chain CDR3) (antibody, name in Kabat numbering, V domains shown)
VH: QVQLVQSGAEVRKPGASVKVSCKASGYDFSNYAIHWVRQAPGQRLEWMGWINAGNGNTKFSQKFQGRITVTRDTAASTAYMELRSLRSEDTAVYYCARDVSNMVRGIIIAYYFDYWGQGTLVTVSS
VL: EIVMTQSPSSLSASVGDRVTITCRASQSISRYLNWYQLKPGKAPRLLIYGASSLQSGVPSRFSGSGSGAEFTLTISSLQPEDIATYYCQHTRAFGQGTKVEIKR
notes: as for B1
B14 yielded a Kd of 2.25 nM, a koff of 0.0121 s⁻¹ and a kon of 5.37e+06 M⁻¹ s⁻¹.

B15: “AT” antibody variant S96K (heavy chain CDR3) (antibody, name in Kabat numbering, V domains shown)
VH: QVQLVQSGAEVRKPGASVKVSCKASGYDFSNYAIHWVRQAPGQRLEWMGWINAGNGNTKFSQKFQGRITVTRDTAASTAYMELRSLRSEDTAVYYCARDKSNMVRGIIIAYYFDYWGQGTLVTVSS
VL: EIVMTQSPSSLSASVGDRVTITCRASQSISRYLNWYQLKPGKAPRLLIYGASSLQSGVPSRFSGSGSGAEFTLTISSLQPEDIATYYCQHTRAFGQGTKVEIKR
notes: as for B1
As for B15, binding was characterised by a dissociation constant (Kd) of 0.31 nM, the koff worked out at 0.00141 s⁻¹ and the kon came to 4.55e+06 M⁻¹ s⁻¹.

B16: “AT” antibody variant S96W (heavy chain CDR3) (antibody, name in Kabat numbering, V domains shown)
VH: QVQLVQSGAEVRKPGASVKVSCKASGYDFSNYAIHWVRQAPGQRLEWMGWINAGNGNTKFSQKFQGRITVTRDTAASTAYMELRSLRSEDTAVYYCARDWSNMVRGIIIAYYFDYWGQGTLVTVSS
VL: EIVMTQSPSSLSASVGDRVTITCRASQSISRYLNWYQLKPGKAPRLLIYGASSLQSGVPSRFSGSGSGAEFTLTISSLQPEDIATYYCQHTRAFGQGTKVEIKR
notes: as for B1
On to B16, for which the Kd came out at 1.26 nM, the koff was 0.00203 s⁻¹ and the kon stood at 1.61e+06 M⁻¹ s⁻¹.

B17: “AT” antibody variant S96F (heavy chain CDR3) (antibody, name in Kabat numbering, V domains shown)
VH: QVQLVQSGAEVRKPGASVKVSCKASGYDFSNYAIHWVRQAPGQRLEWMGWINAGNGNTKFSQKFQGRITVTRDTAASTAYMELRSLRSEDTAVYYCARDFSNMVRGIIIAYYFDYWGQGTLVTVSS
VL: EIVMTQSPSSLSASVGDRVTITCRASQSISRYLNWYQLKPGKAPRLLIYGASSLQSGVPSRFSGSGSGAEFTLTISSLQPEDIATYYCQHTRAFGQGTKVEIKR
notes: as for B1
In turn, B17 showed a Kd of 8.45 nM, a koff of 0.00268 s⁻¹ and a kon of 317000 M⁻¹ s⁻¹.

For orientation: Kd means the equilibrium constant for the complex coming apart. One may read the koff as the first-order rate constant of dissociation. Low readings indicate a long-lived complex, high ones a short-lived complex. By kon is commonly meant the second-order rate constant of association. A lower kon goes with slower complex formation.
